The series concerns the molecule itself. Kind of series: cryo-EM particle classification.

B1: NTD-truncated human NPC1L1 in the cholesterol-enriched form (domain or fragment, UniProt Q9UHC9-2 265-1332, looked up)
chain: AIARPQALDSTFYLGQMPGSLVLIIILCSVFAVVTILLVGFRVAPARDKSKMVDPKKGTSLSDKLSFSTHTLLGQFFQGWGTWVASWPLTILVLSVIPVVALAAGLVFTELTTDPVELWSAPNSQARSEKAFHDQHFGPFFRTNQVILTAPNRSSYRYDSLLLGPKNFSGILDLDLLLELLELQERLRHLQVWSPEAQRNISLQDICYAPLNPDNTSLYDCCINSLLQYFQNNRTLLLLTANQTLMGQTSQVDWKDHFLYCANAPLTFKDGTALALSCMADYGAPVFPFLAIGGYKGKDYSEAEALIMTFSLNNYPAGDPRLAQAKLWEEAFLEEMRAFQRRMAGMFQVTFMAERSLEDEINRTTAEDLPIFATSYIVIFLYISLALGSYSSWSRVMVDSKATLGLGGVAVVLGAVMAAMGFFSYLGIRSSLVILQVVPFLVLSVGADNIFIFVLEYQRLPRRPGEPREVHIGRALGRVAPSMLLCSLSEAICFFLGALTPMPAVRTFALTSGLAVILDFLLQMSAFVALLSLDSKRQEASRLDVCCCVKPQELPPPGQGEGLLLGFFQKAYAPFLLHWITRGVVLLLFLALFGVSLYSMCHISVGLDQELALPKDSYLLDYFLFLNRYFEVGAPVYFVTTLGYNFSSEAGMNAICSSAGCNNFSFTQKIQYATEFPEQSYLAIPASSWVDDFIDWLTPSSCCRLYISGPNKDKFCPSTVNSLNCLKNCMSITMGSVRPSVEQFHKYLPWFLNDRPNIKCPKGGLAAYSTSVNLTSDGQVLTSRFMAYHKPLKNSQDYTEALRAARELAANITADLRKVPGTDPAFEVFPYTITNVFYEQYLTILPEGLFMLSLCLVPTFAVSCLLLGLDLRSGLLNLLSIVMILVDTVGFMALWGISYNAVSLINLVSAVGMSVEFVSHITRSFAISTKPTWLERAKEATISMGSAVFAGVAMTNLPGILVLGLAKAQLIQIFFFRLNLLITLLGLLHGLVFLPVILSYVGPDVNPALALEQKRAEEAVAAVMVASCPNHPSRVSTADNIYVNHSFEGSIKGAGAISNFLPNNGRQF
modifications: N-glycosylated (10 N-glycosylation sites seen in the density map)
As to B1, the binding result is recorded as “binds”.

These data come from paper PMC8284890 (Science Advances, 2021).
